Test results as given in US20190330367A1.
pKd: −log10 of the molar value.

Experiments:
[1] = molecular target: rhPSMA, extracellular part of human PSMA (residues 44-750) (human) (UniProt Q04609); assay: SPR (BIAcore 2000), mAb captured by anti-mouse IgG, rhPSMA as analyte, Langmuir 1:1 fit
[2] = molecular target: Avi-PSMA, extracellular part of human PSMA comprising an N-terminal Avi-tag (human) (UniProt Q04609); assay: native ELISA, biotinylated Avi-PSMA on streptavidin plate, mAb titrated
[3] = molecular target: Avi-PSMA, extracellular part of human PSMA comprising an N-terminal Avi-tag (human) (UniProt Q04609); assay: direct ELISA on biotinylated Avi-PSMA held on streptavidin-coated plates, HRP secondary antibody, chemiluminescence, normalised binding (%)
[4] = molecular target: human PSMA, full-length (endogenous on LNCaP and CW22Rv1 cells, or stably overexpressed in HEK293T/17 cells) (human) (UniProt Q04609); assay: flow cytometry on live LNCaP cells, mAb 5 µg/mL, Alexa Fluor 647 secondary antibody; number printed beside the open (LNCaP) histogram
[5] = molecular target: human PSMA, full-length (endogenous on LNCaP and CW22Rv1 cells, or stably overexpressed in HEK293T/17 cells) (human) (UniProt Q04609); assay: flow cytometry (summary sentence; differs from […] in Table 2)
[6] = molecular target: human PSMA, full-length (endogenous on LNCaP and CW22Rv1 cells, or stably overexpressed in HEK293T/17 cells) (human) (UniProt Q04609); assay: flow cytometry titration on live LNCaP cells, Alexa Fluor 647 secondary antibody, normalised binding (%)
[7] = molecular target: human PSMA, full-length (endogenous on LNCaP and CW22Rv1 cells, or stably overexpressed in HEK293T/17 cells) (human) (UniProt Q04609); assay: flow cytometry titration on live LNCaP cells

| Substance | pKd [1] | pKd [2] | EC50 (read off the curve) [3] [nM] | median fluorescence (Alexa Fluor 647) [4] | pKd [5] | koff [1] [s⁻¹] | kon [1] [M⁻¹ s⁻¹] | EC50 (read off the curve) [6] [nM] | pKd [7] |
| --- | --- | --- | --- | --- | --- | --- | --- | --- | --- |
| 5D3 mAb (antibody) | 8.97 | 9.85 | 0.1 to 0.2 | 10700 | 8.92 |  |  |  |  |
| J591 mAb (antibody) | 8.92 | 8.95 | 0.9 | 10600 |  | 0.000123 | 102000 | 10 | 7.82 |
